Laboratory results from PMC8934182.

What was measured:
[1] = biological target: SARS-CoV nucleocapsid (N) protein (SARS-CoV, UniProt P59595 1-422); experiment: competition
[2] = biological target: SARS-CoV-2 spike S1 (SARS-CoV-2, UniProt P0DTC2 13-685); experiment: 5.0 ng/mL in EIS
[3] = biological target: Interferon-gamma (IFN-γ) (UniProt P01579 24-161); experiment: competition

Measured: binding result

Sequence of SARS-CoV nucleocapsid (N) protein (P59595 whole entry): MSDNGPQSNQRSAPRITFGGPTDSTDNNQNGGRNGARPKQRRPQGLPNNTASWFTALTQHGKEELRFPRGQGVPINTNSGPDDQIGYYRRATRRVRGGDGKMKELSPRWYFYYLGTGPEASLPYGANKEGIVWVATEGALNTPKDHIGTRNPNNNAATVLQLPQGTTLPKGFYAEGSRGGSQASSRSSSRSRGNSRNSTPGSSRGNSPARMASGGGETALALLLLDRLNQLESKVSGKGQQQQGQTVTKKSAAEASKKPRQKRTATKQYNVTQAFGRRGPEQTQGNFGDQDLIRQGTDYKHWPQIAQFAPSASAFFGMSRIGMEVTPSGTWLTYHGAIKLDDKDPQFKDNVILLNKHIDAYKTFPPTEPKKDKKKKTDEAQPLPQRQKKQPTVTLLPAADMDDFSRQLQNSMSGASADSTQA
Sequence of Interferon-gamma (IFN-γ) (P01579 24-161): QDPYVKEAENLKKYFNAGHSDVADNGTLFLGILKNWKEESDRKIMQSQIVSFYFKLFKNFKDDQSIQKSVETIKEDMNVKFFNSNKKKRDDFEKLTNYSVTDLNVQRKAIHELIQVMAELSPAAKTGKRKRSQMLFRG

B1: N48 aptamer (ssDNA)
DNA: GCTGGATGTCGCTTACGACAATATTCCTTAGGGGCACCGCTACATTGACACATCCAGC
no binding: [1] | [2] | [3]
